# Laboratory results: the supplement of paper PMC11908140
# B1: library; numbered along this chain (parent)
# chain: MRKPRAAVGSGHRKQAASQEGRQKHAKNNSQAKPSACDGLARQPEEVVLQASVSSYHLFRDVAEVTAFRGSLLSWYDQEKRDLPWRRRAEDEMDLDRRAYAVWVSEVMLQQTQVATVINYYTGWMQKWPTLQDLASASLEEVNQLWAGLGYYSRGRRLQEGARKVVEELGGHMPRTAETLQQLLPGVGRYTAGAIASIAFGQATGVVDGNVARVLCRVRAIGADPSSTLVSQQLWGLAQQLVDPARPGDFNQAAMELGATVCTPQRPLCSQCPVESLCRARQRVEQEQLLASGSLSGSPDVEECAPNTGQCHLCLPPSEPWDQTLGVVNFPRKASRKPPREESSATCVLEQPGALGAQILLVQRPNSGLLAGLWEFPSVTWEPSEQLQRKALLQELQRWAGPLPATHLRHLGEVVHTFSHIKLTYQVYGLALEGQTPVTTVPPGARWLTQEEFHTAAVSTAMKKVFRVYQGQQPGTCMGSKRSQVSSPCSRKKPRMGQQVLDNFFRSHISTDAHSLNSAAQ
# Variants of: B1
# Assay: 8OG:A repair function score (normalized; synonymous = 0, nonsense = -1) (normalized log-likelihood score); higher = more repair activity (WT-like)
# Conditions: with 8OG:A DNA repair reporter (GFP) in HEK-293 MUTYH KO cells
# In short: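 With 10 pg/ml doxycycline, MUTYH knockout HEK-293 cells carrying lentiviral MUTYH cDNA NNN codon-scan libraries were co-transfected with mCherry and an 8OG:A GFP repair reporter. Viable mCherry+ cells were sorted into GFP+ (repair) and GFP− bins at 72 h, three replicates per tile, and tile amplicons were sequenced. Per-tile Rosace fitness scores were then normalized into a repair function score anchored on synonymous and nonsense distributions. Medians were fixed at 0 for synonymous and -1 for nonsense, excluding variants under 300 counts per million at the start.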
row,Variant,8OG:A repair function score
1,I359M,-0.00943
2,I359E,-0.818
3,P264C,-0.102
4,A405Y,-0.204
5,A405H,-0.489
6,H312P,-0.0124
7,H312W,-0.103
8,H312S,-0.0172
9,E451H,0.0926
10,F376T,-0.441
11,F376D,-0.964
12,L387C,-0.171
13,Q252C,-0.576
14,E285N,-0.0168
15,E285C,-0.00692
16,P174L,-0.947
17,A291W,-0.0221
18,C489M,0.00595
19,V500P,-0.0532
20,L313H,-0.299
21,L313P,-0.504
22,S153H,-0.0258
23,Q386G,0.0232
24,Q435A,-0.0344

row,Variant,8OG:A repair function score
1,W85E,-1.28
2,W85R,-1.51
3,W85Q,-1.14
4,W85Y,-0.864
5,E413L,-0.056
6,E413G,-0.112
7,G209H,-0.659
8,G209I,-0.359
9,G209A,-0.0943
10,P34E,0.0965
11,T424C,-0.0623
12,T116N,-0.15
13,E382G,-0.0795
14,L183Q,0.0196
15,R482F,0.0283
16,L268D,0.0003
17,M93A,0.00637
18,V53F,-0.00754
19,V53T,-0.0126
20,S384T,-0.0483
21,K463N,-0.338
22,S292Q,-0.0703
23,S292V,-0.0158
24,T176A,-0.251

row,Variant,8OG:A repair function score
1,L215W,-0.704
2,V362M,-0.403
3,N517F,-0.0651
4,E64A,-0.0113
5,I195L,-0.287
6,I195K,-1.05
7,Q363P,-0.208
8,L393H,0.25
9,L393G,-0.22
10,L229K,0.076
11,E303H,-0.102
12,E303L,-0.0849
13,F68R,-1.29
14,D82I,-0.0384
15,H416I,-0.188
16,C272M,-1.19
17,G155E,-0.691
18,D61P,-0.00103
19,L396A,-0.329
20,R266A,-0.0544
21,G161C,-0.293
22,G161W,-1.19
23,V485H,0.0165
24,Q78Y,-0.12

row,Variant,8OG:A repair function score
1,L408Q,-0.293
2,I221V,-0.347
3,S343R,0.0819
4,A371I,-0.776
5,V414M,-0.321
6,T380Q,0.429
7,T380I,-0.128
8,N366V,-0.0917
9,N366P,-0.104
10,G171R,-0.577
11,S335R,-0.0718
12,S298A,-0.000852
13,S298R,-0.0386
14,G39Y,-0.0346
15,Q182V,-0.022
16,L73P,-1.57
17,L73E,-0.46
18,E395I,-0.133
19,L373F,0.16
20,L373Q,-0.26
21,R446N,-0.508
22,R446L,-0.202
23,L432H,-0.223
24,A223T,-0.118

row,Variant,8OG:A repair function score
1,F418E,-0.889
2,R283D,-0.662
3,R283E,-0.246
4,Y428M,-0.656
5,Y428R,-1.14
6,Y428C,-0.883
7,S480W,0.022
8,A89K,-0.0427
9,A461F,-0.265
10,C477V,-0.0256
11,C477T,0.019
12,L241W,-0.384
13,R60M,0.00468
14,V62W,-0.0135
15,Q286H,-0.0639
16,K390P,-0.262
17,F466C,-0.319
18,W146G,-0.399
19,W146D,-1.2
20,S419D,-0.221
21,V65C,-0.00739
22,T130H,-0.115
23,T130W,-0.522
24,S138C,-0.385

row,Variant,8OG:A repair function score
1,S105V,-0.566
2,S105F,-1.43
3,Q484P,0.0115
4,V284D,-0.0734
5,V284S,-0.0426
6,V284R,-0.149
7,G353Y,-0.16
8,L516G,0.00843
9,L516A,0.017
10,L516W,-0.0603
11,A357R,-0.0515
12,A357D,-0.193
13,A357T,-0.0252
14,P273W,-0.748
15,R156K,0.00226
16,Q232L,-0.326
17,Q232T,-0.105
18,R98G,-0.574
19,R98M,-0.316
20,Q310A,-0.00829
21,V230F,-0.517
22,Q144F,-0.198
23,A391Q,-0.0188
24,T122N,0.119

row,Variant,8OG:A repair function score
1,V274I,-0.0406
2,P44L,-0.133
3,R219C,-0.563
4,H514M,-0.00625
5,H514Q,0.00808
6,S226Y,-0.198
7,S226E,0.00732
8,E319K,-0.0997
9,E319L,0.0108
10,V465Q,-1.17
11,A137T,-0.295
12,A67D,0.00532
13,Q110C,-0.75
14,R154Y,-1.21
15,Q426L,-0.0573
16,Q426I,-0.057
17,Q426T,-0.247
18,E302G,-0.316
19,Q202G,-0.395
20,R42V,0.0781
21,K481P,0.00979
22,L158G,-1.15
23,V206Y,-1.01
24,V206E,-1.01

row,Variant,8OG:A repair function score
1,T179Q,-0.0228
2,I198A,-0.548
3,I198G,-1.05
4,G297W,-0.206
5,R281N,-0.0901
6,T308G,-0.0427
7,Y76W,-0.136
8,Y76V,-1.41
9,Y76I,-1.28
10,G471T,-0.0359
11,T455E,-0.119
12,G222K,-0.495
13,L131M,0.0751
14,T228V,0.153
15,E160F,-0.0745
16,L369D,-0.723
17,L369V,-0.297
18,G170S,0.00875
19,Q43H,0.0802
20,W124P,-0.593
21,G123V,0.0959
22,G123E,-0.000943
23,C262V,-1.26
24,G479H,0.0228

row,Variant,8OG:A repair function score
1,Q397R,-0.206
2,Q265N,-0.0302
3,S510P,0.0141
4,D208G,-1
5,S136N,-0.0676
6,V379P,-0.937
7,G475W,-0.0871
8,G356Y,-0.0505
9,Q132L,-0.194
10,Q132F,-0.327
11,T204C,0.0932
12,R2F,0.0866
13,L423M,0.142
14,L423F,-0.0863
15,S294V,-0.0111
16,S294Q,-0.0283
17,P267D,-1.1
18,P267L,-1.03
19,A51N,-0.00641
20,A245E,0.644
21,V104L,-0.583
22,V166I,0.0212
23,A519D,0.0164
24,K127Y,-0.398

row,Variant,8OG:A repair function score
1,A162N,-0.917
2,A259N,-0.257
3,T460E,-0.212
4,G248M,-0.879
5,E92L,-0.011
6,P316W,-0.331
7,W128E,-0.929
8,R389D,-0.426
9,R389I,0.462
10,A354W,-0.0982
11,R213W,-1
12,R213T,-1.01
13,P338T,-0.0578
14,G258L,-1.12
15,T346G,-0.335
16,Q233F,0.305
17,Q233P,-0.428
18,L95I,-0.0112
19,E141T,-0.0124
20,D322G,-0.115
21,D322W,-0.0845
22,V468L,-0.00361
23,P494Y,-0.00726
24,W75D,-3.7

row,Variant,8OG:A repair function score
1,A456N,-0.487
2,A456G,-0.246
3,A520S,-0.0114
4,R467M,-0.057
5,R467K,-0.0257
6,P352I,-0.461
7,L40C,-0.0146
8,P383G,-0.0743
9,V427A,-0.455
10,Y190L,-0.851
11,L139F,-0.0535
12,L139A,-0.241
13,T476E,0.0105
14,V327T,-0.119
15,V327R,-0.583
16,M173L,-0.00175
17,E287M,0.0384
18,E433W,-0.393
19,L290W,-0.0672
20,S483G,-0.0331
21,S74T,-0.0089
22,Y121H,-0.853
23,Q181M,-0.0648
24,R163K,-0.132

row,Variant,8OG:A repair function score
1,C269N,-1.31
2,P488R,0.0168
3,P488E,-0.0239
4,L257C,-0.298
5,Q240S,-0.945
6,G293D,-0.124
7,L134A,-0.0633
8,Y56K,-0.0455
9,T324G,-0.0488
10,F453D,-1.22
11,A101W,-0.762
12,R87K,0.00471
13,V261Q,-0.57
14,R69V,-0.212
15,A36R,-0.15
16,A36W,-0.0681
17,V117R,-1.16
18,A253G,-0.438
19,V218C,-0.211
20,V218T,-0.283
21,H172T,0.0683
22,A220G,-0.13
23,P317E,-0.0108
24,S318D,-0.0363

row,Variant,8OG:A repair function score
1,A457H,-0.398
2,A457W,-0.671
3,S52G,-0.00057
4,A199M,-0.87
5,V107C,-0.0803
6,D96F,-0.446
7,D96M,-0.441
8,G309D,-0.000739
9,G309T,-0.00848
10,R86M,-1.93
11,R189D,-0.22
12,A63S,0.00279
13,E45F,-0.059
14,Q450E,0.156
15,A513M,-0.0173
16,S459M,-0.693
17,S459C,-0.291
18,Q521N,0.00751
19,C311W,-0.459
20,C311G,-0.505
21,C311K,-0.39
22,L72T,-0.206
23,L289H,0.0106
24,L58G,0.00575

row,Variant,8OG:A repair function score
1,L58T,-0.0284
2,D77L,-0.131
3,R157G,-0.381
4,R157E,-0.665
5,R157L,-0.141
6,I509N,0.0286
7,I509S,0.0252
8,E350T,0.0414
9,E350W,0.0193
10,E350P,-1.12
11,E167M,-0.0528
12,E167G,0.00335
13,G236V,-0.0226
14,K3Q,0.107
15,N251R,-1.02
16,Q111G,-0.557
17,G429I,-0.0856
18,G429C,0.227
19,G429L,-0.125
20,D133K,-0.175
21,K333N,-0.205
22,H57K,-0.664
